Assay results: patent US20110301073, “Novel DNA-binding proteins and uses thereof” (Sangamo BioSciences, Inc., published 2011)

Experiments:
[1] = target: T1, TALE13 +63 FokI (Xanthomonas axonopodis (engineered)); assay: cleavage_in_vitro; two inverted sites, 16 bp gap; NEB Buffer 2, 37 C; details: tags: FLAG, NLS, chain copies: 2
T1 chain: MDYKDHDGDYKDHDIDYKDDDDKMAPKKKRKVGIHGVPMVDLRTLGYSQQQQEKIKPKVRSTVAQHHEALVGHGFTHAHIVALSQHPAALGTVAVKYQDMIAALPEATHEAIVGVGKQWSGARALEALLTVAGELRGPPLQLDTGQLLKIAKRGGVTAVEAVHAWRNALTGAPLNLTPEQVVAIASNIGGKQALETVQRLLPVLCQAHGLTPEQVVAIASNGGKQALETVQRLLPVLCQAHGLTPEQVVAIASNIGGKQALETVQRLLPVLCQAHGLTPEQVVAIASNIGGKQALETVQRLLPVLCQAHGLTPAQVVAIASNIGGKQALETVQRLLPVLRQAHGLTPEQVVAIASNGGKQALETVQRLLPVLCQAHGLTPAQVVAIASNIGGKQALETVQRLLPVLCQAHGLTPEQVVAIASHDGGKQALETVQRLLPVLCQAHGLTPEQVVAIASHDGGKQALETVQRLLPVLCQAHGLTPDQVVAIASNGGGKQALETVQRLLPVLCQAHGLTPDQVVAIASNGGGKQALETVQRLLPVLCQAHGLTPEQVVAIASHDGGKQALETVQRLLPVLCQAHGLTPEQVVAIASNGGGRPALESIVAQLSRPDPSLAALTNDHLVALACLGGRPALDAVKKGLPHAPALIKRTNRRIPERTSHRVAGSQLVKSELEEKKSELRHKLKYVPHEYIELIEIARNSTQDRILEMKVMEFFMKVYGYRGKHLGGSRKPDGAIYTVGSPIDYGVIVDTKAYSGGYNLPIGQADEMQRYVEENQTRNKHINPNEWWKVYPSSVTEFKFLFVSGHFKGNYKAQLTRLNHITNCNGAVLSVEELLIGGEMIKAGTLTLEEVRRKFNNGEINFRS
Method: (§1) TALE domain fusions were also constructed using Fold cleavage half domains. For these examples, wild type FokI half cleavage domains were used so that for nuclease activity, a homodimer must be formed from two of the fusions. For these fusions, the TALE13 DNA binding domain was fused to each FokI half domain by cloning the TALE DNA binding domain into a plasmid adjacent to FokI-specifying sequence. In addition, various linkers were tested for use between the DNA binding domain and the nuclease domain. Linkers L2 and L8 were used which are as follows: L2=GS (SEQ ID NO:71) and L8=[…] (SEQ ID NO:72). The target sites were cloned into a TOPO2.1 target vector (Invitrogen) with varying gap spacings between each target binding site such that the two were separated from each other by 2 to 22 bp. PCR amplification of an approximately 1 kb region of the target vector was done to generate the target DNAs. The TALE DNA binding domains were also truncated as described previously, and are described using the same nomenclature as described above in Examples 2 and 6. The TALE domain nuclease fusion clones were expressed in the TNT Rabbit Reticulocyte Lysate system by adding 5 μL of water containing 250 nanograms of the nuclease fusion clone plasmid to 20 μL of lysate and incubating at 30° C. for 90 minutes.
(§2) The lysate was then used to cleave the target DNAs as follows: 2.5 μL of lysate were added to a 50 μL reaction containing 50 nanograms of PCR-amplified target DNA and a final Buffer 2 (New England Biolabs) concentration of 1×. The cleavage reaction was for one hour at 37° C., followed by a 20 minute heat inactivation stage at 65° C. The reaction was then centrifuged at high speed to separate the target DNA from the lysate, causing the lysate to condense into a pellet in the reaction well. The DNA-containing supernatant was pipetted off and run on an ethidium bromide-stained agarose gel (Invitrogen) to separate intact target DNA from cleaved target DNA. The agarose gel was then analyzed using AlphaEaseFC (Alpha Innotech) software to measure the amount of target DNA present in the large uncleaved DNA band and the two smaller DNA bands resulting from a single cleavage event of the target DNA. The percentage of cleaved DNA out of the total amount of target DNA loaded into the gel represents the percent cleavage in each reaction.

[2] = target: T2, TALE13 +39 FokI (Xanthomonas axonopodis (engineered)); assay: as above; details: tags: FLAG, NLS, chain copies: 2
T2 chain: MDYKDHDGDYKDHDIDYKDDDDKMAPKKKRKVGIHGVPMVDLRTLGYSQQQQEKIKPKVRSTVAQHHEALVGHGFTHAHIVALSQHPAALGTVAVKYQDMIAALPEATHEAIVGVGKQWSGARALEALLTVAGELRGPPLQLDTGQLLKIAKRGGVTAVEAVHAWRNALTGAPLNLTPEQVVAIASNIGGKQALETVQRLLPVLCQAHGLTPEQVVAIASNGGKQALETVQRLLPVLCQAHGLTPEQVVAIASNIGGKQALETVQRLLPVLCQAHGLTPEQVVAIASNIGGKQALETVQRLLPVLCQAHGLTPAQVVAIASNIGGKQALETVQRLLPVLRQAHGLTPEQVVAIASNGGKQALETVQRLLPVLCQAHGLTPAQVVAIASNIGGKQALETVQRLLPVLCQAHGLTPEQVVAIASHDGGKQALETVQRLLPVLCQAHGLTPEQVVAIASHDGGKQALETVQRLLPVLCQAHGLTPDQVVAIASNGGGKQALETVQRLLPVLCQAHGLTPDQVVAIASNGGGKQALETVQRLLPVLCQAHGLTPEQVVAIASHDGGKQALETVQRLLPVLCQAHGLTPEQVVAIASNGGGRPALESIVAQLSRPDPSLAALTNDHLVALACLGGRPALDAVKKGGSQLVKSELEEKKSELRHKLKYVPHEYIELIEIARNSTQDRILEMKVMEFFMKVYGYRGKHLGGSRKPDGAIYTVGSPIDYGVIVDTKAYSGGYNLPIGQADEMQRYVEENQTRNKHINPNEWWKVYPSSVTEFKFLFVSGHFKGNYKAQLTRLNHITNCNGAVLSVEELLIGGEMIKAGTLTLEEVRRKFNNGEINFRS
Method: as §1, §2

B1: TALE13 target (dsDNA)
DNA 1: TATAAATACCTTCT
DNA 2: AGAAGGTATTTATA
- activity [1]: 70 % cleavage
- activity [2]: 100 % cleavage
